# “Also recorded” adds a separate entry of the source.
# Legend:
# [1] = test system: dogs with complete AV block; assay: Tandem biological and electronic pacemakers in dogs with complete AV block (injection into left bundle branch); type: in vivo, dog
# Method: Adult mongrel dogs weighing 22-25 kg were anesthetized with propofol 6 mg/kg IV and inhalational isoflurane (1.5%-2.5%). Using a steerable catheter, saline (n=5), AdmHCN2 (n=6) or AdmE324A (n=4) were injected into the left bundle branch (LBB) as described previously (Plotnikov et al., 2004). In 2 additional dogs AdmE324A was injected into the LV septal myocardium as an internal control. Complete AV block was induced via radiofrequency ablation and each site of injection was paced via catheter electrode to distinguish electrocardiographically the origin of the idioventricular rhythm during the follow up period.
# An electronic pacemaker (Discovery II, Flextend lead; Guidant, Indianapolis, Ind.) was implanted and set at VVI 45 bpm. ECG, 24 hour Holter monitoring, pacemaker log record check, and overdrive pacing at 80 bpm were performed daily for 14 days. To evaluate beta-adrenergic responsiveness, on day 14, epinephrine (1.0, 1.5 and 2.0 μg/kg/min for up to 10 min each) was infused to an endpoint of a 50% increase in idioventricular rate or ventricular arrhythmia (single ventricular premature beats having a morphology other than that of the dominant idioventricular rhythm or ventricular tachycardia), whichever occurred first. If none of the above responses was observed within 10 min after onset of the maximal dose of 2 μg/kg/min, the infusion was terminated.
# Data are presented as means±SEM. […] One-way ANOVA was used to evaluate the effect of an implanted construct on electrophysiological parameters. Subsequent analysis was performed using Bonferroni's test where equal variances were assumed and the Games-Howell test where variances were unequal. A two-way contingency table analysis was conducted to evaluate whether epinephrine had different effects across three groups. Data were analyzed using SPSS for Windows software (SPSS, Inc.). P<0.05 was considered to be significant.
# Complete AV block was induced via radiofrequency ablation, and electronic pacemakers were implanted into the right ventricular apical endocardium and set a VV1 45 bpm. ECG and 24-h monitoring were performed daily for 14 days. Beta-adrenergic responsiveness was also evaluated as described above.
# Escape time was evaluated daily by performing three 30-s periods of ventricular overdrive pacing at 80 bpm followed by an abrupt cessation of pacing. The average time between the final electronically paced beat and the first intrinsic beat was then determined. […] There was a different result with regard to basal heart rates throughout the 14-day period, however.
# Xenopus oocytes = assay: Two-microelectrode voltage clamp of expressed HCN current in Xenopus oocytes; type: cell-based, Xenopus laevis
# [2] = test system: newborn rat ventricular myocytes; assay: Whole-cell voltage clamp of expressed HCN current in newborn rat ventricular myocytes; type: cell-based; conditions: for V1/2 / s: fit of average data
# Method: Adult rats were anesthetized with ketamine-xylazine before cardiectomy, and neonatal rats decapitated. Newborn rat ventricular myocyte cultures were prepared as previously described (Protas and Robinson, 1999). Briefly, 1-2-day-old Wistar rats were euthanized, hearts were quickly removed and ventricles were dissociated using a standard trypsinization procedure. Myocytes were harvested, preplated to reduce fibroblast proliferation, cultured initially in serum-containing medium (except when being transfected with plasmids as described below), and then incubated in serum free medium (SFM) at 37° C., 5% CO2 after 24 h. Action potential studies were conducted on 4-day-old monolayer cultures plated directly onto fibronectin-coated 9×22 mm glass coverslips. For voltage clamp experiments, 4-6 day old monolayer cultures were resuspended by brief (2-3 min) exposure to 0.25% trypsin, then replated onto fibronectin-coated coverslips and studied within 2-8 h.
# Adenoviral infection of the newborn ventricular myocytes was performed on cell monolayer cultures 4 days after initial plating. Cells were exposed to a virus-containing mix (m.o.i. 20, in 250 μl of culture medium) for 2 h, rinsed twice and incubated in SFM at 37° C., 5% CO2 for 24-48 hours prior to the cells being resuspended as described above for electrophysiological study.
# The whole-cell patch clamp technique was employed to record mHCN2 current from cultured myocytes. Experiments were carried out on cells superfused at 35° C. The external solution contained (mM): NaCl, 140; NaOH, 2.3; MgCl2, 1; KCl, 10; CaCl2, 1; HEPES, 5; glucose, 10; pH 7.4. MnCl2 (2 mM) and BaCl2 (4 mM) were added to block other currents. The pipette solution contained (mM): aspartic acid, 130; KOH, 146; NaCl, 10; CaCl2, 2; EGTA-KOH, 5; Mg-ATP, 2; HEPES-KOH, 10; pH 7.2.
# To measure the HCN activation curve, a standard two-step protocol was employed. Hyperpolarizing steps from −25 to −135 mV for mHCN2 and from −5 or −15 to −135 mV for mE324A were applied from a holding potential of −10 mV, followed by a tail current step (to −125 or −135 mV). The duration of test steps was longer at less hyperpolarized potential for mHCN2 channels, to more closely approach steady-state activation at all voltages. The normalized plot of tail current versus test voltage was fit with a Boltzmann function and then the voltage of half maximum activation (V1/2) and slope factor(s) were defined from the fitting. Activation kinetics were determined from the same traces, while deactivation kinetics were determined from traces recorded at each test potential after achieving full activation by a prepulse to −135 mV. Time constants were then obtained by fitting the early time course of activation or deactivation current traces with a monoexponential function; the initial delay and any late slow activation or deactivation phase were ignored (Qu et al., 2001; Altomare et al., 2001). Current densities are expressed as the value of the time-dependent component of current amplitude, measured at the end of the test potential and normalized to cell membrane capacitance. Records were not corrected for liquid junction potential, which was previously determined to be 9.8 mV under these conditions (Qu et al., 2001).
# [3] = test system: cell-free patches from Xenopus oocytes; conditions: cited from earlier work
# [4] = 10 μM cAMP in the pipette solution
molecule,measurement,setting,value
"mE324A: mHCN2 channel with E324A point mutation, expressed from cRNA or adenoviral construct AdmE324A (protein, UniProt O88703 1-863, looked up, variant E324A) Potassium/sodium …: MDARGGGGRPGDSPGTTPAPGPPPPPPPPAPPQPQPPPAPPPNPTTPSHPESADEPGPRARLCSRDSACTPGAAKGGANGECGRGEPQCSPEGPARGPKVSFSCRGAASGPSAAEEAGSEEAGPAGEPRGSQASFLQRQFGALLQPGVNKFSLRMFGSQKAVEREQERVKSAGAWIIHPYSDFRFYWDFTMLLFMVGNLIIIPVGITFFKDETTAPWIVFNVVSDTFFLMDLVLNFRTGIVIEDNTEIILDPEKIKKKYLRTWFVVDFVSSIPVDYIFLIVEKGIDSEVYKTARALRIVRFTKILSLLRLLRLSRLIRYIHQWAEIFHMTYDLASAVMRICNLISMMLLLCHWDGCLQFLVPMLQDFPSDCWVSINNMVNHSWSELYSFALFKAMSHMLCIGYGRQAPESMTDIWLTMLSMIVGATCYAMFIGHATALIQSLDSSRRQYQEKYKQVEQYMSFHKLPADFRQKIHDYYEHRYQGKMFDEDSILGELNGPLREEIVNFNCRKLVASMPLFANADPNFVTAMLTKLKFEVFQPGDYIIREGTIGKKMYFIQHGVVSVLTKGNKEMKLSDGSYFGEICLLTRGRRTASVRADTYCRLYSLSVDNFNEVLEEYPMMRRAFETVAIDRLDRIGKKNSILLHKVQHDLSSGVFNNQENAIIQEIVKYDREMVQQAELGQRVGLFPPPPPPQVTSAIATLQQAVAMSFCPQVARPLVGPLALGSPRLVRRAPPGPLPPAASPGPPAASPPAAPSSPRAPRTSPYGVPGSPATRVGPALPARRLSRASRPLSASQPSLPHGVPAPSPAASARPASSSTPRLGPAPTARTAAPSPDRRDSASPGAASGLDPLDSARSRLSSNL","beats triggered by the electronic pacemaker, of all beats","[1]; 14 days, electronic pacemaker set at VVI 45 bpm",36±7%
same,arrhythmias during epinephrine infusion,[1]; day 14,no arrhythmias were seen
same,mean basal heart rate compared with saline group,[1]; days 1-7 and 8-14,significantly faster
same,animals that achieved a 50% increase in rate at the lowest epinephrine dose,"[1]; epinephrine 1 μg/kg/min, day 14",100%
same,increase in heart rate,[1]; lowest dose of epinephrine,> 50%
same,control rate prior to epinephrine,"[1]; representative animal, day 14",52 bpm
same,rate with epinephrine,"[1]; representative animal, epinephrine 1 μg/kg/min",81 bpm
same,effect of Cs+ on inward current,Xenopus oocytes; 5 mM Cs+,blocked; also recorded: large inhibition
same,reversal potential,Xenopus oocytes; fully activated current/voltage relation,~−40 mV
same,activation kinetics compared with mHCN2,[2],faster
same,activation threshold compared with mHCN2,[2],less negative
same,shift of V1/2 by cAMP,[2]; [4],5.6 mV
same,percentage of myocytes expressing current,[2]; 6 matched cell cultures,36.6%
same,"current density, times smaller than that of mHCN2",[2]; at −135 mV,about 2.5 times
same,V1/2,[2]; [4],−40.7 mV
same,s,[2]; [4],8.7 mV
same,V1/2,[2]; absence of cAMP,−46.3 mV
same,s,[2]; absence of cAMP,9.1 mV
same,slope factor s,[2]; mean of individual Boltzmann fits,9.6±0.4 mV
same,V1/2 (voltage of half maximum activation),"[2]; mean of individual Boltzmann fits, adenoviral infection",−46.9±1.2 mV
same,current density,[2]; measured at −135 mV,21.0±3.5 pA/pF
"HCN1: HCN1 isoform of hyperpolarization-activated, cyclic nucleotide-gated ion channel (protein, UniProt O60741 1-890, looked up) Potassium/sodium …: MEGGGKPNSSSNSRDDGNSVFPAKASATGAGPAAAEKRLGTPPGGGGAGAKEHGNSVCFKVDGGGGGGGGGGGGEEPAGGFEDAEGPRRQYGFMQRQFTSMLQPGVNKFSLRMFGSQKAVEKEQERVKTAGFWIIHPYSDFRFYWDLIMLIMMVGNLVIIPVGITFFTEQTTTPWIIFNVASDTVFLLDLIMNFRTGTVNEDSSEIILDPKVIKMNYLKSWFVVDFISSIPVDYIFLIVEKGMDSEVYKTARALRIVRFTKILSLLRLLRLSRLIRYIHQWEEIFHMTYDLASAVVRIFNLIGMMLLLCHWDGCLQFLVPLLQDFPPDCWVSLNEMVNDSWGKQYSYALFKAMSHMLCIGYGAQAPVSMSDLWITMLSMIVGATCYAMFVGHATALIQSLDSSRRQYQEKYKQVEQYMSFHKLPADMRQKIHDYYEHRYQGKIFDEENILNELNDPLREEIVNFNCRKLVATMPLFANADPNFVTAMLSKLRFEVFQPGDYIIREGAVGKKMYFIQHGVAGVITKSSKEMKLTDGSYFGEICLLTKGRRTASVRADTYCRLYSLSVDNFNEVLEEYPMMRRAFETVAIDRLDRIGKKNSILLQKFQKDLNTGVFNNQENEILKQIVKHDREMVQAIAPINYPQMTTLNSTSSTTTPTSRMRTQSPPVYTATSLSHSNLHSPSPSTQTPQPSAILSPCSYTTAVCSPPVQSPLAARTFHYASPTASQLSLMQQQPQQQVQQSQPPQTQPQQPSPQPQTPGSSTPKNEVHKSTQALHNTNLTREVRPLSASQPSLPHEVSTLISRPHPTVGESLASIPQPVTAVPGTGLQAGGRSTVPQRVTLFRQMSSGAIPPNRGVPPAPPPPAAALPRESSSVLNTDPDAEKPRFASNL",shift of activation curve to more positive potentials by cAMP,[3],4 mV

# Source: US20090053180A1, “Tandem cardiac pacemaker system” (priority 2005, published 2009)
